Where “and” joins values, the source holds several entries; their conditions need not be identical. Identical values can stand only once. Like-named read-outs stand apart in the source and are kept apart here.
How the values were obtained:
Experiment in all cases: SPR
human IgG4 (human) = biological target: human IgG4 (human)
human IgG3 (human) = biological target: human IgG3 (human)
[1] = biological target: mouse FcRn (FcRn/β2m heterodimer, soluble extracellular domain) (mouse) (UniProt Q61559)
[2] = biological target: rat FcRn (FcRn/β2m heterodimer, soluble extracellular domain) (rat) (UniProt P13599)
[3] = biological target: mouse FcRn (FcRn/β2m heterodimer, soluble extracellular domain) (mouse) (UniProt Q61559); remark: listed apart in the source
[4] = biological target: rat FcRn (FcRn/β2m heterodimer, soluble extracellular domain) (rat) (UniProt P13599); remark: listed apart in the source
[5] = biological target: mouse FcRn (FcRn/β2m heterodimer, soluble extracellular domain) (mouse) (UniProt Q61559); remark: listed apart in the source
[6] = biological target: rat FcRn (FcRn/β2m heterodimer, soluble extracellular domain) (rat) (UniProt P13599); remark: listed apart in the source
[7] = biological target: trastuzumab hIgG1 N434H (homodimer) (human)
[8] = biological target: trastuzumab hIgG1 wild type (homodimer) (human)
[9] = biological target: trastuzumab hIgG1 N434Y (homodimer) (human)
[10] = biological target: trastuzumab hIgG1 N434Y (homodimer) (human); remark: listed apart in the source
[11] = biological target: mouse FcRn (FcRn/β2m heterodimer, soluble extracellular domain) (mouse) (UniProt Q61559); remark: listed apart in the source
[12] = biological target: trastuzumab hIgG1 N434Y R arm (parental) (human)
mouse IgG2a (mouse) = biological target: mouse IgG2a (mouse)
[13] = biological target: trastuzumab hIgG1 AAA:WT E:R heterodimer (human)
[14] = biological target: trastuzumab hIgG1 WT E arm (parental) (human)
[15] = biological target: trastuzumab hIgG1 WT R arm (parental) (human)
[16] = biological target: trastuzumab hIgG1 WT:WT E:R heterodimer (human)
[17] = biological target: trastuzumab hIgG1 AAA:N434H E:R heterodimer (human)
[18] = biological target: trastuzumab hIgG1 I253A:WT E:R heterodimer (human)
[19] = biological target: trastuzumab hIgG1 AAA:N434Y E:R heterodimer (human)
[20] = biological target: rat IgG2a (panel of unrelated mAbs of subtype rIgG2a) (rat)
rat IgG2c (rat) = biological target: rat IgG2c (rat)
[21] = biological target: cynomolgus monkey IgG2 (cynomolgus monkey)
mouse IgG2b (mouse) = biological target: mouse IgG2b (mouse)
rat IgG1 (rat) = biological target: rat IgG1 (rat)
[22] = biological target: human IgG2 (category of several hIgG2 molecules) (human)
[23] = biological target: rhesus monkey IgG1 (rhesus monkey)
mouse IgG3 (mouse) = biological target: mouse IgG3 (mouse)
[24] = biological target: rat IgG2a (panel of unrelated mAbs of subtype rIgG2a) (rat); remark: listed apart in the source
[25] = biological target: human IgG1 (category of several hIgG1 molecules) (human)
[26] = biological target: rhesus monkey IgG2 (rhesus monkey)
[27] = biological target: cynomolgus monkey IgG1 (cynomolgus monkey)
rat IgG2b (rat) = biological target: rat IgG2b (rat)
mouse IgG1 (mouse) = biological target: mouse IgG1 (mouse)

cynomolgus monkey FcRn (FcRn/β2m heterodimer, soluble extracellular domain) (from UniProt Q8SPV9;Q8SPW0) (receptor)
Kd (human IgG4 (human)): 258 nM and 266 nM and 450 nM | Kd (human IgG3 (human)): 188 nM and 213 nM and 387 nM

trastuzumab hIgG1 N434Y (homodimer) (antibody)
Kd [1]: 0.292 nM | Kd [2]: 3.3 nM | Kd [3]: 36 nM | Kd [4]: 460 nM

trastuzumab hIgG1 wild type (homodimer) (antibody)
Kd [1]: 48 nM | Kd [2]: 49 nM

trastuzumab hIgG1 AAA:WT E:R heterodimer (antibody)
Kd [1]: 54 nM | Kd [2]: 46 nM | Kd [5]: 49 nM | Kd [6]: 67 nM

rat FcRn (FcRn/β2m heterodimer, soluble extracellular domain) (from UniProt P13599;P07151) (receptor)
Kd [7]: 9.9 nM | Kd [8]: 84 nM | Kd [9]: 4.5 nM | Kd [10]: 455 nM

trastuzumab hIgG1 AAA:N434Y E:R heterodimer (antibody)
Kd [1]: 0.28 nM | Kd [2]: 2.7 nM | Kd [5]: 0.35 nM | Kd [6]: 3.5 nM | Kd [11]: 66 nM | Kd [3]: 50 nM and 52 nM

trastuzumab hIgG1 N434H (homodimer) (antibody)
Kd [1]: 3.7 nM | Kd [2]: 5.4 nM

human FcRn (FcRn/β2m heterodimer, soluble extracellular domain) (from UniProt P55899;P61769) (receptor)
Kd (human IgG4 (human)): 717 nM and 973 nM | Kd (human IgG3 (human)): 585 nM and 898 nM

mouse FcRn (FcRn/β2m heterodimer, soluble extracellular domain) (from UniProt Q61559;P01887) (receptor)
stoichiometry N [7]: 2 FcRn per IgG | Kd [12]: 0.47 nM | Kd (mouse IgG2a (mouse)): 490 nM and 931 nM | Kd (human IgG4 (human)): 116 nM and 197 nM and 183 nM | Kd [13]: 58 nM | stoichiometry N [13]: 1 FcRn per IgG | Kd [14]: 58 nM | Kd [15]: 58 nM | Kd [8]: 58 nM | stoichiometry N [8]: 2 FcRn per IgG | Kd [9]: 0.47 nM | stoichiometry N [9]: 2 FcRn per IgG | Kd [16]: 58 nM | stoichiometry N [17]: 1 FcRn per IgG | Kd [18]: 58 nM | Kd (human IgG3 (human)): 230 nM and 353 nM and 328 nM | Kd [19]: 0.47 nM | stoichiometry N [19]: 1 FcRn per IgG | Kd [10]: 44.1 nM

trastuzumab hIgG1 AAA:N434H E:R heterodimer (antibody)
Kd [1]: 3.8 nM | Kd [2]: 4.9 nM | Kd [5]: 3.6 nM | Kd [6]: 8 nM

B1: rat FcRn (FcRn/β2m heterodimer, soluble extracellular domain) (receptor)
chain 1: AEPRLPLMYHLAAVSDLSTGLPSFWATGWLGAQQYLTYNNLRQEADPCGAWIWENQVSWYWEKETTDLKSKEQLFLEAIRTLENQINGTFTLQGLLGCELAPDNSSLPTAVFALNGEEFMRFNPRTGNWSGEWPETDIVGNLWMKQPEAARKESEFLLTSCPERLLGHLERGRQNLEWKEPPSMRLKARPGNSGSSVLTCAAFSFYPPELKFRFLRNGLASGSGNCSTGPNGDGSFHAWSLLEVKRGDEHHYQCQVEHEGLAQPLTVDL
chain 2: IQKTPQIQVYSRHPPENGKPNFLNCYVSQFHPPQIEIELLKNGKKIPNIEMSDLSFSKDWSFYILAHTEFTPTETDVYACRVKHVTLKEPKTVTWDRDM
Kd [20]: 44 nM and 69 nM and 55 nM | koff [20]: 0.0119 s⁻¹ | kon [20]: 220000 M⁻¹ s⁻¹ | Kd (rat IgG2c (rat)): 452 nM and 617 nM | Kd [21]: 38 nM and 51 nM | Kd (mouse IgG2b (mouse)): 332 nM and 368 nM | Kd (rat IgG1 (rat)): 285 nM and 329 nM | Kd (mouse IgG2a (mouse)): 97 nM and 150 nM | Kd [22]: 53 nM and 93 nM | Kd [23]: 88 nM and 119 nM | Kd (mouse IgG3 (mouse)): 183 nM | Kd [24]: 45 nM and 76 nM | Kd (human IgG4 (human)): 123 nM and 149 nM and 145 nM | Kd [25]: 68 nM and 135 nM | Kd [26]: 41 nM and 51 nM | Kd [27]: 88 nM and 123 nM | Kd (rat IgG2b (rat)): 186 nM and 248 nM | Kd (human IgG3 (human)): 313 nM and 357 nM and 366 nM | Kd (mouse IgG1 (mouse)): 501 nM and 567 nM
